Experimental data as given in the DeepSol protein solubility set.

Experiment: soluble on expression in E. coli; label from the status in PepcDB or PDB records

**Q.** With “MKTARLLSSGALALSLLAGSVTAAVSPDEAAKLGSSLTPIGAQKEGNADGSIPAWTGGLAASAGKVDGKGFLSDPFADEKPLFTITAQNVEQYKDKLSDGQLAMFKRYPETYRIPVYKTHRTVALPAEIDEAVKQSALNVQPINDGNGLSNFEKSRYYAFPIPKNGVEVLWNHITRYRGGNLKRTIVQATPQTNGSFTPIRFEESVAFPQNMPDLDQSKAANILTFFKQQVTAPARLAGNVLLVHETLDQVKEPRLAWVYNAGQRRVRRAPQVAYDGPGTAADGLRTSDNFDMFSGAPDRYDWKLVGKREMYIPYNAYKLNDPTLKYSDIIKAGHINQDLTRYELHRVWEVVGTVKPGERHIYAKRHMYIDEDSWQIALVDHYDGRGQLWRVGEGHAQYHYDQKVAGYTLEALYDVIAGRYLALGMNNEEKRGYEFGFKASSADYTPAALRNAGVR” as the sequence, how does the “soluble on expression in E. coli” value read?
**A.** Its value is “not soluble”.

**Q.** For “MLSFVIPAHDEAALIGDTLQCLHACAQAMQLDHEVIVVADACEDATAAIARSHGAQVLEVLEVQLRHIAATRNAGAQAAQGEHLLFLDADTSINPQVVGAALAALDAGAVGGGARVHLQGKRVWSERVAQAVFGWFFRVSGIAPGCFLFCTRAAFVSAGGFDTRYYAGEDVALSRALARCGRFVILRQTVHTSDRKLRSFSKREHLGLLLRFLWRGRRMLQTRDALGFWYQRRRLEHHHHHH”, which “soluble on expression in E. coli” value is on record?
**A.** Its value is “not soluble”.

**Q.** Which “soluble on expression in E. coli” value does the source give for “MTIQPPSSSSATEFCQPDESTFLVGFNRVRRYGTTQSQSSPVTPCSYTIYQVQTDDTLERIALKHNCSVSSLVRANKLWSPSALFMKQFIRIPIFNSQQPNLKPSLQETQCKIVPATTERVDSSREEKSMKDILQRIDRNIKSFRKCDNPSSSAYDHI” here?
**A.** The value was “not soluble”.

**Q.** For “MSLFIDAHNHLDFFEEQEKLNKALDIIKNDNIITLGCSMDTKSYKFTKSLALKNKNIIPCFGIHPSRAHENFKNLECFDEYIRESKIIGEIGLDYVWVKEKEKYPHMKRVFTYFLEEAKKYNKITNIHTKGAESEIYNYIKKYELKTPIIHWYSGDKDTLKKLLDYGCYFTISVDIGYSKLSKEIVQLLPIDKILTETDGPTSLEWVNGDYGYPNVIKNVVKEISKIKNIQEEEVKGVIENNFKTLIRKEGITLEGHHHHHH”, which “soluble on expression in E. coli” value is on record?
**A.** Its value is “soluble”.

**Q.** Which “soluble on expression in E. coli” value does the source give for “MSLSEAGYPRKVMQHAEELHERILSFDSRITVPLDFGTTGNEVDKDGPGQLDLVKAGRGRLSGAALAIFGWPEMWNGPNAPHKPTPGFVDEARHQQEIRYKILTGMVRDFPNQVGIAYSPEDFRRLAMEGKFAIVMSMLNAYPLGDDLSQLDKWAARGVRMFGFSYVGNNDWADSSRPLPFFNDSPDALGGLSPLGKQAVERLNDLGVIIDVSQMSTKALEQVAALSRAPIVASHSAPRALVDIKRNLSDHEMQLIKDSGGVIQVVGFPAYLRPLSKPTLDKLDALRARFDLPPLEGLDYALMPGDPIITIWPEQRFGEYASALYGILEEEPKAGLKELVDAIDYTVKKVGIDHVGISSDFNDGGGVDGWKDVSEIRNVTAELITRGYSDADIAKLWGGNFLRAWGEVQNAPSRQPPPKGIITITTDPNSSSVDKLAAALEHHHHHH” here?
**A.** The value was “soluble”.

**Q.** For “MSTDPEEFDQAETLDQLAYEIILLTRYGVQNTPTNKREAIMDRSALILLTRLDAQGPMTVNELAESFGLNVSTVHRQLKAAIANGLIEVVDDQACPAKLHRPTELGKEKLQQELLARQQDLTRILHDWDEEDIKTHAKLLRKHNESLEEYLDMKWPRP”, which “soluble on expression in E. coli” value is on record?
**A.** Its value is “not soluble”.

**Q.** For “PKEQSMKIVVIGGTGLIGSNVVNRLRRDGHETVAASPGTGVNTITGEGLAQALDGAQVVVDVANSPSFEDQAVMAFFETSGRTLLAAEAAAGVTHHLALSVVGTDRLADSGYFRAKVAQEALIKASKVPYTILRATQFFE”, which “soluble on expression in E. coli” value is on record?
**A.** Its value is “not soluble”.

**Q.** With “STFVAKDGTQIYFKDWGSGKPVLFSHGWLLDADMWEYQMEYLSSRGYRTIAFDRRGFGRSDQPWTGNDYDTFADDIAQLIEHLDLKEVTLVGFSMGGGDVARYIARHGSARVAGLVLLGAVTPLFGQKPDYPQGVPLDVFARFKTELLKDRAQFISDFNAPFYGINKGQVVSQGVQTQTLQIALLASLKATVDCVTAFAETDFRPDMAKIDVPTLVIHGDGDQIVPFETTGKVAAELIKGAELKVYKDAPHGFAVTHAQQLNEDLLAFLKRGSHHHHHH” as the sequence, how does the “soluble on expression in E. coli” value read?
**A.** The value was “soluble”.

**Q.** For “MRGSHHHHHHGSSQVADKDDPTNKFYQSVIQLGNGFLDVFTSFGGLVAEAFGFKSDPKKSDVKTYFTTVAAKLEKTKTDLNSLPKEKSDISSTTGKPDSTGSVGTAVEGAIKEVSELLDKLVKAVKTAEGASSGTAAIGEVVADADAAKVADKASVKGIAKGIKEIVEAAGGSEKLKAVAAAKGENNKGAGKLFGKAGAAAHGDSEAASKAAGAVSAVSGEQILSAIVTAADAAEQDGKKPEEAKNPIAAAIGDKDGGAEFGQDEMKKDDQIAAAIALRGMAKDGKFAVKDGEKEKAEGAIKGAAESAVRKVLGAITGLIGDAVSSGLRKVGDSVKAASKETPPALNK”, which “soluble on expression in E. coli” value is on record?
**A.** The value was “soluble”.

**Q.** With “MKTTKFNIENLDLFYGENQALKSINLPIPTRQVTALIGPSGCGKSTLLRCLNRMNDLIEGVTITGKLTMDGQDVYGNIDVSDLRIRVGMVFQKPNPFPMSIYENVAYGLRAQGIKDKKHLDEVVERSLRGAALWDEVKDRLKSHAFGLSGGQQQRLCIARTIAMEPDVILMDEPTSALDPIATHKIEELMEDLKKNYTIVIVTHSMQQARRISDRTAFFLMGELVEHDDTQVIFSNPRDDRTRGYVNGDFG” as the sequence, how does the “soluble on expression in E. coli” value read?
**A.** The value was “not soluble”.

**Q.** Which “soluble on expression in E. coli” value does the source give for “MGSDKIHHHHHHMFLMVIINPTDGMSAMSAPLDTDQLQTFIAIVDTGSFTKAAGRVFKTQSAVSMQMRRLEERIGKQLFIKDGRGNRLTAEGEKLLNYARRIVRLNSEAIAAFDDNRLEGTLRIGTPDDYADRYMPEIIGRFAKTHPNVELYIVCEPSSDLAEKMARGELDIALVTHNPATRQSDVMRTEPLCWVASANHPLRDDAPVPLAVGRRDCNWRQLACSALDADGRDYQILFTSWSSTVVAAAVLAGLAVSVLPESALRTGMKVLGQLDGFPPLPPVQIGIMKRPGMSPSLMNAITDHIAACLDNINPTAIEDDMDGETKTYSRYYPRLRAGHMIPGW” here?
**A.** The value was “not soluble”.

**Q.** For “MSLFTCEDPAVWKAVHNKYWTVVEAKSAGKRKTSGKLLQLDKWFQEDLPAAITARPERFLTHAELVKIMEWKLTKGKFRPRLQQLIGSNNEEAVQSSSSKAFSLLPDVQAAIKELCKLKGVGSATASAVLVAGAPDKVAFMADEAVESIAELRPVEYTDKHYALYLQKMLWKTSELNKVDAQQDWTPHRVEQCLWTWTVANQIQPSLLQGVSLKDATNQKPEKRKTADEKPSKRKKTE”, which “soluble on expression in E. coli” value is on record?
**A.** Its value is “not soluble”.

**Q.** For “MLQLFSFLAIFYISLSNCDPQILRLKSIPSPIPNVEEGAKLYLASNDDNGLLKNIQVQTAGGSFTLDQINVNTANGNAKSIVIDGGLVISTSNSNADTSGLTGFLYLTTKKQADDPAFSVYVIKQAQTVSTTQPNSTVVILNTELDNDAFFDHIEPLQIGLDYWYFTASEPMSMTMESKYVSDLVYTTTSVNTTGLVVNDFLFQEHVVKFQLDLTRVRTIGTLVSAIPIASQINVIFNQGGGISAQR”, which “soluble on expression in E. coli” value is on record?
**A.** Its value is “not soluble”.

**Q.** For “MCSLSAIMLLPTKLKPAYSDKRSNSSSSSSLFFNNRRSKKKNQSIVPVARLFGPAIFESSKLKVLFLGVDEKKHPSTLPRTYTLTHSDITAKLTLAISQSINNSQLQGWANRLYRDEVVAEWKKVKGKMSLHVHCHISGGHFLLDLFAKFRYFIFCKELPVVLKAFVHGDGNLLNNYPELQEALVWVYFHSNVNEFNKVECWGPLWEAVSPDGHKTETLPEARCADECSCCFPTVSSIPWSHSLSNEGVNGYSGTQTEGIATPNPEKL”, which “soluble on expression in E. coli” value is on record?
**A.** Its value is “soluble”.

**Q.** For “DQQYVKNFLLLVKSDNPEEQAAATETSIPRKLREMRMASTIDSTLSKDDILTRYLNLVHLGNGAFGVEAAARTYFGKGAPELSLAQSAMFAGIVQSSSYLDPYTNPDAVMDRRNVVLDTMAANGYATPEDVAAAKAEPLGVLEQPQGLPNGCITAGDNGFFCDYVLKYLSEKGLSTDQLTQGSYTINTTLDPDVQQAAHAAAAGQVNSHTFGVANVMNIVEPGKDSRKILAMTSSRDYGLDLDAGQTVLPQPTSLVGNGAGSVFKIFTAAVALQQGYGLDTQLQVPPRYEAKGMGDGGAEGCGAGTYCVENSGSYAPQMSLRDALAFSPNTPFVQMIEKVGVKDVVDTSVKLGLRSYANPGTFNKDNSIADYVKEHNLGSYTLGPTAVNPLELSNVAASLASDGMWCEPSPITTVTDAKGNEVFLDRPACEQAIDPEIAQALSAGLSQDTIKGTGAQAAKSLGFSAPTAAKTGTTESHSS”, which “soluble on expression in E. coli” value is on record?
**A.** Its value is “not soluble”.

**Q.** Which “soluble on expression in E. coli” value does the source give for “MGSDKIHHHHHHMTKTDPAPMAPPPRGEEEEEEEEDEPVPEAPSPTQERRQKPVVHPSAPAPLPKDYAFTFFDPNDPACQEILFDPQTTIPELFAIVRQWVPQVQHKIDVIGNEILRRGCHVNDRDGLTDMTLLHYACKAGAHGVGDPAAAVRLSQQLLALGADVTLRSRWTNMNALHYAAYFDVPVLVRVLLKGARPRVVNSTCSDFNHGSALHIAASSLCLGAAKCLLEHGANPALRNRKGQVPAEVVPDPMDMSLDKAEAALVAKELRTLLEEAVPLSCALPKVTLPNYDNVPGNLMLSALGLRLGDRVLLDGQKTGTLRFCGTTEFASGQWVGVELDEPEGKNDGSVGGVRYFICPPKQGLFASVSKISKAVDAPPSSVTSTPRTPRMDFSRVTGKGRREHKGKKKTPSSPSLGSLQQRDGAKAEVGDQVLVAGQKQGIVRFYGKTDFAPGYWYGIELDQPTGKHDGSVFGVRYFTCPPRHGVFAPASRIQRIGGSTDSPGDSVGAKKVHQVTMTQPKRTFTTVRTPKDIASENSISRLLFCCWFPWMLRAEMQS” here?
**A.** Its value is “not soluble”.

**Q.** With “MLKGGEDVVQGTHVRELTPEWVARAVGGRLHPGGGPVRDLVWHSGAATPGSLFAVLPGRTTHGRHFIPEALARGASLVLADQAGPATLEVEDPWQALLRLGEALRRLFPGPVLAVGGSSGKTTTKEALAQGLGLPAPPGNLNTAPPLVRFFWHLDPQSPGAVVELGVDRQGEMAELFALAKPHLAVLTALGEEHLEAFGTLEKAVQEEAHLLRAPTALVGEQAAPLVLGLREDLLVYGFAEGTFRGRDLELGLRESRFRYGGLHVRVPYPGLGPAYGALAALAAAEVLGLSLEEVAERLARLTLPPGRMETREVGGVVFVNDAYNANPLSVKAGLRWLAAQPGRKWAVLGEMRELGRESLRLHLEVAEEAARLGLSPLYLGPHARHQAAFSGEAVESLEEALAWLKARVAPGDLVYLKASRAVGLERIVELWDAPFSS” as the sequence, how does the “soluble on expression in E. coli” value read?
**A.** The value was “soluble”.

**Q.** With “MRFVPSYLIGFITLYLKGKVMLSIFDIYKIGVGPSSSHTNGPMIAGYRFVQQLLPQLNKVARIQVDLYGSLSLTGKGHHTDRATLLGLMGNQPATIKIGDANQTLREALQTGKLRLNGQHDIAFDYHQDLLFHQDNLPLHENGMTLSAFDTQGQQIDFETYYSVGGGFVATAEQLQNGT” as the sequence, how does the “soluble on expression in E. coli” value read?
**A.** The value was “not soluble”.

**Q.** Which “soluble on expression in E. coli” value does the source give for “MGSDKIHHHHHHMRCFIGIDLGSTTTKAVVMDENLQILGRGITNSRSNYDTAAAVSKQEALIDTRLTLFRRALGGVPEVAGKVDDILSDLERNFRHVQFLEQLEDLQQTCIANIKGPRFAGREKTVIEALEGTFSRLRDSSAKQYAPGVKRKSDFFRDLAGAEFMSHGEAVCKEAGLGFDLILNVYDKSIIEVENRPPSGDMEGKFVRALEKGTMTGSSILAPVQSALAIPLEETYVVGTGYGRVRLPFPKEHIRSEILCHGLGAHMMYPETRTVLDIGGQDTKGIQVDPVGIVENFQMNDRCAAGCGRYLGYIADEMNMGLHELGPLAMKSNKQVRINSTCTVFAGAELRDRLALGEKREDILAGLHRAIILRAMSILSRAGGVKDQFTFTGGVAKNEAAVRELRKLIKENYGDVTINIDPDSIYTGALGGATFAVRAVVN” here?
**A.** The value was “not soluble”.

**Q.** With “MIKIGAHMPISKGFDRVPQDTVNIGGNSFQIFPHNARSWSAKLPSDEAATKFKREMKKHGIDWENAFCHSGYLINLASPKDDIWQKSVELLKKEVEICRKLGIRYLNIHPGSHLGTGEEEGIDRIVRGLNEVLNNTEGVVILLENVSQKGGNIGYKLEQLKKIRDLVDQRDRVAITYDTCHGFDSGYDITKKEGVEALLNEIESLFGLERLKMIHLNDSKYPLGAAKDRHERIGSGFIGEEGFAVFFSFKEIQEVPWILETPGGNEEHAEDIKKVFEIIEKFGIEVD” as the sequence, how does the “soluble on expression in E. coli” value read?
**A.** The value was “soluble”.
